The target in data set [1] is His-tagged DcNMCP1 (Daucus carota nuclear matrix constituent protein 1 with an N-terminal 6x His tag) (Daucus carota). Kind of data set: transmission electron microscopy after low-angle rotary metal shadowing; purified protein in urea dialysed against H2O (30-120 min) to induce refolding; sprayed in 40% glycerol on mica, platinum-carbon shadowing; monomers to coiled-coil dimer.

Data set [2] concerns the molecule itself. The data set is described as above.

Results on two molecules are retold here after article PMC8483785, “The plant nuclear lamina proteins NMCP1 and NMCP2 form a filamentous network with lateral filament associations” (Journal of Experimental Botany, 2021).

One may read the stoichiometry N as the number of molecules, sites or subunits per partner or assembly. In turn, “His-tagged DcNMCP1 (Daucus carota nuclear matrix constituent protein 1 with an N-terminal 6x His tag) (from UniProt A0A166B1A6 1-1119) (natural protein)” displayed a stoichiometry N in data set [1] of 2.

B1: His-tagged DcNMCP2 (Daucus carota nuclear matrix constituent protein 2 with an N-terminal 6x His tag) (natural protein, UniProt D2YZU8 1-927, looked up)
chain: MASPRLTVIQSEKTTVTSSRVSRSSMSDDDIWKRLQEAGFDEDSIKRRDKASLIAYITKLEAEIYDHQYQMGLLIMERKEWGSKFERVEAALNSAELMRKHDKNLYLKDLAEAKKREENLKKAIEIERECLANIEKTLHELRAEYAETKVMADSKLVEARSMIEDALKKLSEADAKKHAAESLEAEASRYHSAAERKLHEVEAREDDLRRRATSFKTECDTKEEEILHERRLLNERQKALQQSQQRLVDGQDLLNKRESHIFERTQELNRKEKELEASKLKQEEELQALVEQQANLETKASSLSLREEVITKSELEVKKREEELCVLQEKLEKKESERIQQLLANYEASLSMKKSEFEAELEVKRKSVHDDIENKRRDWELREVDLHHREELILEKEHELEMQSRAVVDKERDLAGRFSLLEEKENRLHAVEKEIESKEALLQKEKEEIISSKLDIQRSLDALEDEKKQLHHAEEKMEAMKSETNELCVLESKLKEEIETIRAQKQELETEADEMKELKLKFEIEWQSIDEKRKELQKEAECINEQRESLELTLKDERNSLKLEKDAMRDEYMRNNESLSRDREDFMKKMEHERSEWFSKIQKERSDYLLAIEVQSKDLEDRLAKRREEIESYLAERERAFEEEKKKELMRMDTLRETLARETEQVNAELNRLDTERREINLDRERRDREWAELNTLIEELKVQRQKLEKQRELMRADKEEILVQIEHLKQLEDLKVVPDRIALTDIQQSDLQPSKRVSARRSLKRQSGLDSGCRAEDNGNASSGNGSVILSPPLSSPFSWLKRCASSLLEQKVSNKKMRHSEEIITPSTIPARLNAPDDEHAVISANQQTPVHAKETTVYIDKIITIREVTSFNDAIVDGNNQNLEEALSQRAEEKLEDDNNIESEKLEKNGEVDPKIMQASLTEQ
notes: Nuclear matrix constituent protein 2 (NMCP2) of Daucus carota; longest ORF of cDNA clone pD2m, amplified from the start codon to the stop codon; the PCR product included a 2808 bp ORF; GenBank AB514509; also called 6x His-tagged DcNMCP2; product of pDC2mN; not shown: His6, N-terminal, kept
With B1, the “stoichiometry N” value in data set [2] stood at 2.
